Laboratory results from IntAct's records for PubMed 24907116.

B1: Mineralocorticoid receptor (Homo sapiens), P08235 (parent)
chain: METKGYHSLPEGLDMERRWGQVSQAVERSSLGPTERTDENNYMEIVNVSCVSGAIPNNSTQGSSKEKQELLPCLQQDNNRPGILTSDIKTELESKELSATVAESMGLYMDSVRDADYSYEQQNQQGSMSPAKIYQNVEQLVKFYKGNGHRPSTLSCVNTPLRSFMSDSGSSVNGGVMRAVVKSPIMCHEKSPSVCSPLNMTSSVCSPAGINSVSSTTASFGSFPVHSPITQGTPLTCSPNVENRGSRSHSPAHASNVGSPLSSPLSSMKSSISSPPSHCSVKSPVSSPNNVTLRSSVSSPANINNSRCSVSSPSNTNNRSTLSSPAASTVGSICSPVNNAFSYTASGTSAGSSTLRDVVPSPDTQEKGAQEVPFPKTEEVESAISNGVTGQLNIVQYIKPEPDGAFSSSCLGGNSKINSDSSFSVPIKQESTKHSCSGTSFKGNPTVNPFPFMDGSYFSFMDDKDYYSLSGILGPPVPGFDGNCEGSGFPVGIKQEPDDGSYYPEASIPSSAIVGVNSGGQSFHYRIGAQGTISLSRSARDQSFQHLSSFPPVNTLVESWKSHGDLSSRRSDGYPVLEYIPENVSSSTLRSVSTGSSRPSKICLVCGDEASGCHYGVVTCGSCKVFFKRAVEGQHNYLCAGRNDCIIDKIRRKNCPACRLQKCLQAGMNLGARKSKKLGKLKGIHEEQPQQQQPPPPPPPPQSPEEGTTYIAPAKEPSVNTALVPQLSTISRALTPSPVMVLENIEPEIVYAGYDSSKPDTAENLLSTLNRLAGKQMIQVVKWAKVLPGFKNLPLEDQITLIQYSWMCLSSFALSWRSYKHTNSQFLYFAPDLVFNEEKMHQSAMYELCQGMHQISLQFVRLQLTFEEYTIMKVLLLLSTIPKDGLKSQAAFEEMRTNYIKELRKMVTKCPNNSGQSWQRFYQLTKLLDSMHDLVSDLLEFCFYTFRESHALKVEFPAMLVEIISDQLPKVESGNAKPLYFHRK
partner: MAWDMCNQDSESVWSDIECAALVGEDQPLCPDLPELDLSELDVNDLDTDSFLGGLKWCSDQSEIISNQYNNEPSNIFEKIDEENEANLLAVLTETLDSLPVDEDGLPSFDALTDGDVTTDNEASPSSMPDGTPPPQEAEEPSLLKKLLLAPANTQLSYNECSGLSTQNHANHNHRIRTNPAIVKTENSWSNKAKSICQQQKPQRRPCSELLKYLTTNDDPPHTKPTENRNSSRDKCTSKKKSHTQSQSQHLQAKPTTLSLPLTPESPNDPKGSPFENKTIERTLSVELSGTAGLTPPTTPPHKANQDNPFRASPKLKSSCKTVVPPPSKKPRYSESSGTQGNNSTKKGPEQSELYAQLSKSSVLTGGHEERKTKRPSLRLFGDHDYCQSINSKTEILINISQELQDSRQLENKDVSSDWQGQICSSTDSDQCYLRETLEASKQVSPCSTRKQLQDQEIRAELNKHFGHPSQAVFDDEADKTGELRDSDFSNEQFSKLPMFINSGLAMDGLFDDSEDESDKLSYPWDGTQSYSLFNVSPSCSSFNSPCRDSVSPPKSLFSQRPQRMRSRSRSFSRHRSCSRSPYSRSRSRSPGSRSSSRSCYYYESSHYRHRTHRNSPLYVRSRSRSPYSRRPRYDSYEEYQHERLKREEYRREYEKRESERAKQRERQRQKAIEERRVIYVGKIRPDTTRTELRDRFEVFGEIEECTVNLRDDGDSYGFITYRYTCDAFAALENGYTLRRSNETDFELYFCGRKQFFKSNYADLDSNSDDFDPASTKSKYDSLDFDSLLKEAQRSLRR
B2: Mineralocorticoid receptor (Homo sapiens), P08235 (parent)
chain: B1 chain
partner: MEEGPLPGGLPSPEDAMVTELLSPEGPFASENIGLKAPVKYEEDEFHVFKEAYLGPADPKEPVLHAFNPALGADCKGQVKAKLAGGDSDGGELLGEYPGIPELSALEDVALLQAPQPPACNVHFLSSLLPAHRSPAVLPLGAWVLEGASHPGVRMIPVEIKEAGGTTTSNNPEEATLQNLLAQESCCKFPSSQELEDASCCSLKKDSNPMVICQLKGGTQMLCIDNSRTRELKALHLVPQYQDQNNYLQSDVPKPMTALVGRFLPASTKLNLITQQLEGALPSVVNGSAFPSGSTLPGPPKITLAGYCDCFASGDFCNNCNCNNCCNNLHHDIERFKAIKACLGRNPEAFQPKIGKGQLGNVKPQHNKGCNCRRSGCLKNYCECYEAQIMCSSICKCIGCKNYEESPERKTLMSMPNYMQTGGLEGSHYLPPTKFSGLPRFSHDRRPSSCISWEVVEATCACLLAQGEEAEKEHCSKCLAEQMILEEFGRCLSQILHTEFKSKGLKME
B3: Tesmin (Homo sapiens), Q9Y4I5 (parent)
chain: B2 partner

Variants of: B1
Details: with prgc1_human PPARGC1A

Variant | effect of a mutation on the interaction
E962A | disrupting interaction strength

Variants of: B1
Details: with prgc1_human PPARGC1A
Remark: another data set of the same source

Variant | effect of a mutation on the interaction
E962A | decreasing interaction strength

Variants of: B2
Details: with mtl5_human TESMIN

Variant | effect of a mutation on the interaction
E962A | decreasing interaction strength

Variants of: B3
Details: with mcr_human NR3C2, P08235

Variant | effect of a mutation on the interaction
L128A;L129A | with no effect
L128A;L129A;L180A;L181A | disrupting interaction strength
L180A;L181A | with no effect
